± gives the standard error. Variants at the floor of the assay were thinned out.
B1: glmS ribozyme (parent)
chain: AUAAAAGCGCCAGAACUACAGAAAUGUAGUUGACGAGGAGGAGGUUUAUCGAAUUUUCGGCGGAUGCCUCCAAA

Variants of: B1
Assay: self-cleavage kobs at 2500 uM GlcN6P; higher = faster cleavage; RNA array
Conditions: with glucosamine-6-phosphate
Summary of the method: (§1)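 Sequenced MiSeq chips were the platform: E. coli RNA polymerase transcribed barcoded ribozyme variants on them in situ, and a hybridised Cy3 probe tracked these at 37 °C. After glucosamine-6-phosphate (40 μM to 10 mM) in HEPES/KCl/Mg(OAc)2 buffer was flowed in, tiles were imaged over ~14 h. Signals normalised to baseline and to non-cleaving reference variants were reduced to per-tile medians and fit to one- or two-exponential decays to obtain kobs. kcat and KM were derived through weighted Michaelis–Menten fits across concentrations.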

Variant | self-cleavage kobs at 2500 uM GlcN6P [s⁻¹]
A12C A15G G43C | < 1e-05
A14G G37U G44U | < 1e-05
G7A A64C C67G U69G | < 1e-05
G9C A52U C58U | < 1e-05
A14U C50A C71A | 4.46e-05 ± 2.1e-05
C10A U54C | < 1e-05
A14U G40C U46C A53G C71G | 0.00101 ± 0.00038
G7C C16A G43C U45G C71U | < 1e-05
C10G C16G G32C A42U G60U | < 1e-05
C10A G37A A53C | < 1e-05
A12C U30A G60A | < 1e-05
C8U G38A C70A | < 1e-05
G9U A12U C68U | < 1e-05
G7C C34A U46G G63C | < 1e-05
A14G U31C G40U U55A | 0.0012 ± 0.00032
G9U C10U C67U | < 1e-05
A15C A39U U49A C50U A52G A53C | < 1e-05
A15U U45A U65G | 0.00134 ± 0.00059
C10A G51U C67G | 0.000109 ± 5.4e-05
A14U A52C A53G U55C U57G | < 1e-05
G9U C16A U30G | < 1e-05
C16G G32U G44A G60A | < 1e-05
G13U U31G G41U G43U | < 1e-05

Variant | self-cleavage kobs at 2500 uM GlcN6P [s⁻¹]
G7A A12G G35A | < 1e-05
C11U A48U G60U | < 1e-05
A14G C16G A64G U69G | 5.19e-05 ± 2.3e-05
C16U G32C A36G C58G G59C C61A | < 1e-05
C10A A42G U55G C67U | < 1e-05
C8G G35U A39C | < 1e-05
C11A G43U U54G | < 1e-05
A12U A33U A42G G51C U55A C71G | < 1e-05
A12C A33G | < 1e-05
C16A U31C G43A U47G A53G C68U | 8.35e-05 ± 2.9e-05
C10G A42C U45G | < 1e-05
A12G A33G G44C | < 1e-05
C11A G51U U55A G62A | < 1e-05
C10G G40A G60U | < 1e-05
A12G U45G U54G | 0.000192 ± 5.5e-05
C16A A36C U49A U65G | < 1e-05
C8A A33C G40A U47G | < 1e-05
A6G G7C A36U A39U | < 1e-05
A15U U56C U57G G63A C70G | 0.000104 ± 4.9e-05
A6U C10G A39U C71U | < 1e-05
C11U G29C G44U G63U U65C C67U C71U | < 1e-05
G7U U49A U65G | < 1e-05
A12U G32A G35U U49A C61G U65C G66A | < 1e-05

Variant | self-cleavage kobs at 2500 uM GlcN6P [s⁻¹]
A15U A39G G51A | < 1e-05
C16U C34G A53C | < 1e-05
C8G U46G A48U U55G G66U C70U | < 1e-05
A24C G26U G40U | 0.00202 ± 0.00051
G9C A15C A33C U46A U65G | < 1e-05
G7C C10U G13C G66U | < 1e-05
A12U A36C G59U U65A | < 1e-05
A6U A33U C68G | < 1e-05
G29A U30A A53G U65G | 6.03e-05 ± 1.7e-05
A14U G32U G40U | 3.98e-05 ± 1.3e-05
C11G A12C A48C | < 1e-05
C8G A64G U69A C71U | < 1e-05
C11A G37C G38U | < 1e-05
G13A U30C G59A | < 1e-05
A12G G13U G60U | < 1e-05
A14C U45A U57A | 3.29e-05 ± 1.2e-05
G9A A42U | < 1e-05
G9A A33U A39C A42U U46G U55A G60U A64U | < 1e-05
G7U U45A C58A | < 1e-05
G26U G66U | 0.000774 ± 0.00023
A6U C11U U57G C58G C61A C68U C70U | 0.000618 ± 0.00019
G13U U57G U65C | < 1e-05
G7U A52G G60C C67G | < 1e-05

Variant | self-cleavage kobs at 2500 uM GlcN6P [s⁻¹]
C16U G35U G62U G63U | < 1e-05
A12G U49A U65A | < 1e-05
G7A A48G C70U | < 1e-05
C19A U31C U45G | 0.000156 ± 4.3e-05
G7A G32U C58U C67U | < 1e-05
G13A G29U G60U G66A | < 1e-05
A12C G13U U30C G60A G66A | < 1e-05
A12G A53C U56G | 5.07e-05 ± 1.5e-05
A15U U55G C58U C70G | 6.29e-05 ± 2.7e-05
A14C U46G C70A | 0.000308 ± 9.2e-05
C10A G40A U47C A48G C70U | < 1e-05
C11A A14U C71U | 6.69e-05 ± 2.1e-05
C16A G32U U55G | 0.000117 ± 3.5e-05
A6U G13A U49C | < 1e-05
C11G C50U C61U C70G | 0.000127 ± 3.7e-05
C11U A12G A15U | 0.000175 ± 4.8e-05
A15G G38U U57A G62U U69A | 0.000891 ± 0.00032
C11U A14G C70G | 0.000303 ± 5e-05
C16U C34U U47C G59U C71U | < 1e-05
C8U G13A A15G | < 1e-05
A15G U31G U47G | 0.000803 ± 0.00015
C8A A15C G32A | < 1e-05
C11A C16U C71U | 0.000223 ± 5.3e-05

Variant | self-cleavage kobs at 2500 uM GlcN6P [s⁻¹]
G7U C11A A14C A15C A33C U46G A48G C61U C67A | < 1e-05
C16U U31C U46C C70U | 0.000342 ± 0.00015
A15G U30A G44U U45A | 0.000178 ± 5.5e-05
C8U A39U C67G | < 1e-05
G7U C10G G43U | < 1e-05
G7A U31C G35C A42C U46G U54G | < 1e-05
C19A U30C | 7.18e-05 ± 2.3e-05
A14U U30G G41U | 0.000233 ± 7.4e-05
G9U G41C G59A C71U | < 1e-05
C11U A15C G63U U65A C67A | < 1e-05
A12U C16U C70A | 0.000361 ± 0.00013
A15C U55A G60C | < 1e-05
C10G C16U A33G G40C U47G U56G | < 1e-05
C8A C50G U69G | 0.000345 ± 7.5e-05
A14G G32U U55G | 0.000962 ± 0.00018
C16A A53U U55A | 0.000149 ± 3.9e-05
G13U U45A U46A C58U | 6.89e-05 ± 3.4e-05
C16A A33C C71A | < 1e-05
C11U U49A A52G | < 1e-05
G9A A33C A39C U57A | < 1e-05
C11A U54A U56A G59U | 0.00154 ± 0.00068
A14C C34G A48C | < 1e-05
G7C U30G G37A | < 1e-05

Variant | self-cleavage kobs at 2500 uM GlcN6P [s⁻¹]
C8G A33G A52G A53G C68A U69G | 0.000457 ± 0.00011
G7U U47G A52U | < 1e-05
C11U U54C C67A | 0.00025 ± 8e-05
C8G A15U U47G | < 1e-05
A12G G32U U45G G59U | < 1e-05
A12U G29C A36U G44U C61G | < 1e-05
C8U A36U C50U | < 1e-05
A14G A15C C71A | 0.00262 ± 0.00058
C10U A14C G32C | < 1e-05
C16U G43U U45G | 0.00141 ± 0.00031
G7U U54C C61A | < 1e-05
C11A A14C C70U | 7.46e-05 ± 2.7e-05
A15G C34A G37C | < 1e-05
G9A G37C G38C | < 1e-05
C19U G41C U55C C70A | 0.000203 ± 9.2e-05
G7U G9U U56A G59U | < 1e-05
A6U G29U A36G G44A U55C | < 1e-05
G7U A39U C50A | < 1e-05
C11U G29A U49G G62A C67G | < 1e-05
G7A A12C A15U G41U | < 1e-05
G7C G21U C67G | < 1e-05
C16U G29C A64G G66C | 0.000347 ± 0.00011
G7C G29U G35U | < 1e-05

Variant | self-cleavage kobs at 2500 uM GlcN6P [s⁻¹]
A15C G43A G44U G59U | < 1e-05
G7C C11G A12U | < 1e-05
A12U A39U G40A | 0.00415 ± 0.0015
C10G A36C G60C C70U | < 1e-05
C10U A15G U31A G32U U65G | < 1e-05
C8G C16G G40C | < 1e-05
C8G G37A A39U | < 1e-05
A6U C16G C71G | 0.000356 ± 0.00014
A12G A42U U69A | 0.000849 ± 0.00021
G7A C11A A12U G32A G60A C61G | < 1e-05
G9U G32A A33C | < 1e-05
C8A U45G U54G G66A | < 1e-05
A15G A39U G60C | < 1e-05
A12U A33C G43A C67U | < 1e-05
A14C A33G G35C G38C G44A A48U C50U | < 1e-05
A14C A36U G59U | < 1e-05
A12C G37U A52G | < 1e-05
A6G G43U G44A A48U G63A | < 1e-05
A15G A33U G40U G41A | < 1e-05

Variants of: B1
Assay: self-cleavage kobs at 10000 uM GlcN6P; higher = faster cleavage; RNA array
Conditions: with glucosamine-6-phosphate
Summary of the method: as §1

Variant | self-cleavage kobs at 10000 uM GlcN6P [s⁻¹]
A12C A15G G43C | < 1e-05
A14U G40C U46C A53G C71G | 0.00202 ± 0.00042
A12C U30A G60A | < 1e-05
C10A A42G U55G C67U | < 1e-05
A12C A33G | < 1e-05
A24C G26U G40U | 0.00158 ± 0.00035
A12G G13U G60U | < 1e-05
G13U U57G U65C | < 1e-05
C11A A14U C71U | 4.6e-05 ± 1.3e-05
C16A G32U U55G | 0.000315 ± 4.6e-05
C11G C50U C61U C70G | 3.43e-05 ± 1.4e-05
C11U A12G A15U | 0.000193 ± 4.2e-05
C11U A14G C70G | 0.000165 ± 3.1e-05
C19A U30C | 6.71e-05 ± 2.2e-05
G9U G41C G59A C71U | < 1e-05
A14C C34G A48C | < 1e-05
A12G A42U U69A | 0.00112 ± 0.00029
A15G A33U G40U G41A | < 1e-05

— the supplement of paper PMC7125110
